Paper PMC11048174

How the values were obtained:
[1] = biological target: Avidin (obtained from egg white) (UniProt P02701); assay: electrochemical impedance spectroscopy; MWCNT-Av on glassy carbon electrode, incubated with bLOx or LOx; charge transfer resistance of hydroquinone/benzoquinone at 0.050 V, 0.050 M phosphate buffer pH 7.40
[2] = biological target: Avidin (obtained from egg white) (UniProt P02701); assay: SPR; MWCNT-Av deposited on a gold disk; 0.50 mg mL^-1 bLOx or LOx injected manually, batch conditions, 25 °C; amount from the change of the resonance angle after washing with phosphate buffer

UniProt P02701, sequence (P02701 25-152): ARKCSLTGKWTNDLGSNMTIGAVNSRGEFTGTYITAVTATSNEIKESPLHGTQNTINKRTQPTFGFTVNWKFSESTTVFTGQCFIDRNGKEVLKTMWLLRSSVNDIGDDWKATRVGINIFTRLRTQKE

RCT (charge transfer resistance) after interaction [1]: 200 Ω
amount immobilised (from the SPR angle change) [2]: 2600 pg mm^−2
Substance: recombinant biotinylated lactate oxidase (enzyme)
